Measurements taken from US20230212319A1, “NOVEL ANTIGEN BINDING DOMAINS AND SYNTHETIC ANTIGEN RECEPTORS INCORPORATING THE SAME” (University of Southern California, priority 2020, published 2023).

B1: SEQ ID NO: 22293: bispecific CD19xCD20 SAR with RZIP leucine zipper domain on hu-mR005-1 vL and CD20-VHH-USC1-2HCD26 on the vH domain (protein)
chain: MALPVTALLLPLALLLHAARPACMDPDLEIRAAFLRQRNTALRTEVAELEQEVQRLENEVSQYETRYGPLGGGKGTGGGGSGGGGSGGGGSEFDIQMTQSPSSLSASVGDRVTITCKASDHINNWLAWYQQKPGQAPKLLIYGATTLETGVPSRFSGSGSGTDYTLTISSLQPEDFATYYCQQSWNTPWTFGQGTKLEIKRLEDLKNVFPPEVAVFEPSEAEISHTQKATLVCLATGFYPDHVELSWWVNGKEVHSGVCTDPQPLKEQPALNDSRYCLSSRLRVSATFWQNPRNHFRCQVQFYGLSENDEWTQDRAKPVTQIVSAEAWGRADCGFTSESYQQGVLSATILYEILLGKATLYAVLVSALVLMAMVKRKDSRGRAKRSGSGATNFSLLKQAGDVEENPGPTSATMDWIWRILFLVGAATGAHSGPEVQLVESGGGLVQAGGSLRLSCAASGRTFSMGWFRQAPGKEREFVAAITYSGGSPYYADSVKGRFTISRDNAKNTVYLQMNSLKPEDTAVYYCAANPTYGSDWNAENWGQGTQVTVSSGSGGGGSGGGGSGGGGSFEQVQLQQPGAELVKPGASVKMSCKASGYAFSSYWINWMKQKPGQGLEWIGQIYPGDGDTNYNGKFKGRATLTADTSSSTAYMQLSSLTSEDSAVYFCARSITTVVGCAMDYWGQGTSVTVSSTRIQNPDPAVYQLRDSKSSDKSVCLFTDFDSQTNVSQSKDSDVYITDKCVLDMRSMDFKSNSAVAWSNKSDFACANAFNNSIIPEDTFFPSPESSCDVKLVEKSFETDTNLNFQNLSVIGFRILLLKVAGFNLLMTLRLWSSRAKRSGSGVKQTLNFDLLKLAGDVESNPGPSRGHMTEYKPTVRLATRDDVPRAVRTLAAAFADYPATRHTVDPDRHIERVTELQELFLTRVGLDIGKVWVADDGAAVAVWTTPESVEAGAVFAEIGPRMAELSGSRLAAQQQMEGLLAPHRPKEPAWFLATVGVSPDHQGKGLGSAVVLPGVEAAERAGVPAFLETSAPRNLPFYERLGFTVTADVEVPEGPRTWCMTRKPGA
B2: SEQ ID NO: 22294: RZIP domain attached directly to truncated TCR chain [hTCRb-wt-opt2-6MD] with a short GS linker, without Ig or long linker (protein)
chain: MALPVTALLLPLALLLHAARPQLQLQESGPGLVKPSETLSLTCTVSGDSISSGDYYWGWIRQPPGKGLEWIGHIYYSGVTYYNPSLKSRVTISVDTSRNQFSLKLSSVTAADTAVYYCTREDSSNWRSRGQGTLVTVSSLEGSIPEDTFFPSPESSCDVKLVEKSFETDTNLNFQNLSVIGFRILLLKVAGFNLLMTLRLWSSRAKRSGSGVKQTLNFDLLKLAGDVESNPGPTSATMDWIWRILFLVGAATGAHSEFMDPDLEIRAAFLRQRNTALRTEVAELEQEVQRLENEVSQYETRYGPLGGGKTRGSGRADCGFTSESYQQGVLSATILYEILLGKATLYAVLVSALVLMAMVKRKDSRGRAKRSGSGATNFSLLKQAGDVEENPGPSRGHMTEYKPTVRLATRDDVPRAVRTLAAAFADYPATRHTVDPDRHIERVTELQELFLTRVGLDIGKVWVADDGAAVAVWTTPESVEAGAVFAEIGPRMAELSGSRLAAQQQMEGLLAPHRPKEPAWFLATVGVSPDHQGKGLGSAVVLPGVEAAERAGVPAFLETSAPRNLPFYERLGFTVTADVEVPEGPRTWCMTRKPGA
B3: 22058 (protein)
chain: MALPVTALLLPLALLLHAARPQLQLQESGPGLVKPSETLSLTCTVSGDSISSGDYYWGWIRQPPGKGLEWIGHIYYSGVTYYNPSLKSRVTISVDTSRNQFSLKLSSVTAADTAVYYCTREDSSNWRSRGQGTLVTVSSLEDLKNVFPPEVAVFEPSEAEISHTQKATLVCLATGFYPDHVELSWWVNGKEVHSGVCTDPQPLKEQPALNDSRYCLSSRLRVSATFWQNPRNHFRCQVQFYGLSENDEWTQDRAKPVTQIVSAEAWGRADCGFTSESYQQGVLSATILYEILLGKATLYAVLVSALVLMAMVKRKDSRGRAKRSGSGATNFSLLKQAGDVEENPGPTSMDWIWRILFLVGAATGAHSFEVQLVESGGGVVQPGRSLRLSCAASGFSFSGYGMHWVRQAPGKGLEWVAYISYDGSNKYYADSVKGRFTISRDNSKNTLYLQMNSLRAEDTAVYYCAKDPAWGLRLGESSSYDFDIWGQGTMVTVSSTRIQNPDPAVYQLRDSKSSDKSVCLFTDFDSQTNVSQSKDSDVYITDKCVLDMRSMDFKSNSAVAWSNKSDFACANAFNNSIIPEDTFFPSPESSCDVKLVEKSFETDTNLNFQNLSVIGFRILLLKVAGFNLLMTLRLWSSRAKRSGSGVKQTLNFDLLKLAGDVESNPGPSRGHMTEYKPTVRLATRDDVPRAVRTLAAAFADYPATRHTVDPDRHIERVTELQELFLTRVGLDIGKVWVADDGAAVAVWTTPESVEAGAVFAEIGPRMAELSGSRLAAQQQMEGLLAPHRPKEPAWFLATVGVSPDHQGKGLGSAVVLPGVEAAERAGVPAFLETSAPRNLPFYERLGFTVTADVEVPEGPRTWCMTRKPGA
B4: 22286 (protein)
chain: MALPVTALLLPLALLLHAARPACLFNQEVQIPLTESYCGPCPKNWICYKNNCYQFFDESKNWYESQASCMSQNASLLKVYSKEDQDLLKLVKSAHWMGLVHIPTNGSWQWEDGSILSPNLLTIIEMQKGDCALYASSFKGYIENCSTPNTYICMQRTVLEGQPKANPTVTLFPPSSEELQANKATLVCLISDFYPGAVTVAWKADGSPVKAGVETTKPSKQSNNKYAASSYLSLTPEQWKSHRSYSCQVTHEGSTVEKTVAPTECSPIKTDVITMDPKDNCSKDANDTLLLQLTNTSAYYMYLLLLLKSVVYFAIITCCLLRRTAFCCNGEKSRAKRSGSGATNFSLLKQAGDVEENPGPTSATMDWIWRILFLVGAATGAHSGPQVQLQESGGGLAQAGGSLRLSCAASGRTFSMGWFRQAPGKEREFVAAITYSGGSPYYASSVRGRFTISRDNAKNTVYLQMNSLKPEDTAVYYCAANPTYGSDWNAENWGQGTQVTVSSGSGGGGSGGGGSGGGGSFEQVQLQQPGAELVKPGASVKMSCKASGYAFSSYWINWMKQKPGQGLEWIGQIYPGDGDTNYNGKFKGRATLTADTSSSTAYMQLSSLTSEDSAVYFCARSITTVVGCAMDYWGQGTSVTVSSTRASTKGPSVFPLAPSSKSTSGGTAALGCLVKDYFPEPVTVSWNSGALTSGVHTFPAVLQSSGLYSLSSVVTVPSSSLGTQTYICNVNHKPSNTKVDKRVEPKSCEVKTDSTDHVKPKETENTKQPSKSCHKPKAIVHTEKVNMMSLTVLGLRMLFAKTVAVNFLLTAKLFFLRAKRSGSGVKQTLNFDLLKLAGDVESNPGPSRGHMTEYKPTVRLATRDDVPRAVRTLAAAFADYPATRHTVDPDRHIERVTELQELFLTRVGLDIGKVWVADDGAAVAVWTTPESVEAGAVFAEIGPRMAELSGSRLAAQQQMEGLLAPHRPKEPAWFLATVGVSPDHQGKGLGSAVVLPGVEAAERAGVPAFLETSAPRNLPFYERLGFTVTADVEVPEGPRTWCMTRKPGA
B5: 22288 (protein)
chain: MALPVTALLLPLALLLHAARPACLFNQEVQIPLTESYCGPCPKNWICYKNNCYQFFDESKNWYESQASCMSQNASLLKVYSKEDQDLLKLVKSAHWMGLVHIPTNGSWQWEDGSILSPNLLTIIEMQKGDCALYASSFKGYIENCSTPNTYICMQRTVLEGQPKANPTVTLFPPSSEELQANKATLVCLISDFYPGAVTVAWKADGSPVKAGVETTKPSKQSNNKYAASSYLSLTPEQWKSHRSYSCQVTHEGSTVEKTVAPTECSPIKTDVITMDPKDNCSKDANDTLLLQLTNTSAYYMYLLLLLKSVVYFAIITCCLLRRTAFCCNGEKSRAKRSGSGATNFSLLKQAGDVEENPGPTSATMDWIWRILFLVGAATGAHSGPQVQLQESGGGLAQAGGSLRLSCAASGRTFSMGWFRQAPGKEREFVAAITYSGGSPYYASSVRGRFTISRDNAKNTVYLQMNSLKPEDTAVYYCAANPTYGSDWNAENWGQGTQVTVSSGSGGGGSGGGGSGGGGSFEDLFNQEVQIPLTESYCGPCPKNWICYKNNCYQFFDESKNWYESQASCMSQNASLLKVYSKEDQDLLKLVKSAHWMGLVHIPTNGSWQWEDGSILSPNLLTIIEMQKGDCALYASSFKGFIENCSTPNTYICMQRTVTRASTKGPSVFPLAPSSKSTSGGTAALGCLVKDYFPEPVTVSWNSGALTSGVHTFPAVLQSSGLYSLSSVVTVPSSSLGTQTYICNVNHKPSNTKVDKRVEPKSCEVKTDSTDHVKPKETENTKQPSKSCHKPKAIVHTEKVNMMSLTVLGLRMLFAKTVAVNFLLTAKLFFLRAKRSGSGVKQTLNFDLLKLAGDVESNPGPSRGHMTEYKPTVRLATRDDVPRAVRTLAAAFADYPATRHTVDPDRHIERVTELQELFLTRVGLDIGKVWVADDGAAVAVWTTPESVEAGAVFAEIGPRMAELSGSRLAAQQQMEGLLAPHRPKEPAWFLATVGVSPDHQGKGLGSAVVLPGVEAAERAGVPAFLETSAPRNLPFYERLGFTVTADVEVPEGPRTWCMTRKPGA

Experiments:
Type in all cases: cell-based
L363 cells = assay: JNG assay, co-culture with L363 cells; conditions: L363 cells (BCMA+), only in the presence of SAR adaptor BCMA-FHVH-74-EZIP (SEQ ID NO: 23119)
In short: (§1)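 Jurkat-NFAT-GFP (JNG) cells stably expressing SAR constructs via lentiviral transduction and puromycin/blasticidin selection were cocultured with target cells at E:T ~1:2 for ~4–18 h. NFAT-driven GFP was measured by FACS versus parental JNG cells; scores +/- to 5+ denote ~5–50% GFP-positive cells.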

LNCaP cells = assay: JNG assay, co-culture with LNCaP cells; conditions: for redirection to LNCaP cells: LNCaP (PSMA+) cells in the presence of SAR adaptor CD8SP-PSMA-USC76-chVH-EZIP (SEQ ID NO: 23118); for NFAT-GFP ASSAY: LNCaP with PSMA-USC76-chVH-G4S-ULBP2-S3: LNCaP in presence of SAR adaptor PSMA-USC76-chVH-G4S-ULBP2-S3
In short: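 SAR-JNG (lentiviral spinfection, drug-selected) + target cells, E:T ≈1:2, ≈4–18 h; FACS for GFP; positivity = %GFP+ over parental JNG; grades +/- to 5+ ≈ 5–50% GFP+.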

RAJI cells = assay: JNG assay, co-culture with RAJI cells; conditions: JNG cells expressing construct, co-culture with Raji
In short: as §1

Row | Molecule | GFP induction (L363 cells) | redirection to LNCaP cells (LNCaP cells) | NFAT-GFP ASSAY: Raji (RAJI cells) | NFAT-GFP ASSAY: LNCaP (LNCaP cells; co-culture with LNCaP) | NFAT-GFP ASSAY: LNCaP with PSMA-USC76-chVH-G4S-ULBP2-S3 (LNCaP cells)
1 | B1 | robust induction of GFP | could be redirected |  |  | 
2 | B2 | Weaker results | Weaker results |  |  | 
3 | B3 |  |  | +/- (refer to approximately 5%, 10%, 20%, 30%, 40% and 50% GFP positive cells) | + (refer to approximately 5%, 10%, 20%, 30%, 40% and 50% GFP positive cells) | 
4 | B4 |  |  | + (refer to approximately 5%, 10%, 20%, 30%, 40% and 50% GFP positive cells) |  | + (refer to approximately 5%, 10%, 20%, 30%, 40% and 50% GFP positive cells)
5 | B5 |  |  | 3+ (refer to approximately 5%, 10%, 20%, 30%, 40% and 50% GFP positive cells) |  | + (refer to approximately 5%, 10%, 20%, 30%, 40% and 50% GFP positive cells)
